The data set concerns T1, DNASE1-LIKE 3, Isoform 1 (wild-type human D1L3), purified.
T1 sequence: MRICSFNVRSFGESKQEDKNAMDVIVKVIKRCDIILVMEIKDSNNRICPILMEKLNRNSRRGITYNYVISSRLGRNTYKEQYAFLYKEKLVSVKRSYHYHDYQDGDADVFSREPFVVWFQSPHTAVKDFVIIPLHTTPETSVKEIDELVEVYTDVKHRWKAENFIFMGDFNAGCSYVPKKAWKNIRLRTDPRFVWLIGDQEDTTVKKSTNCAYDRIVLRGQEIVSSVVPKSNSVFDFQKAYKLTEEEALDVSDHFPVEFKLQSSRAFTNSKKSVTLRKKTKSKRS

As to plasmin (purified), the “proteolytic cleavage sites (digestion, fragments sequenced by LC and MS)” value was “plasmin cleaved D1L3 at the following arginine and lysine residues: R22, R29, K45, K47, K74, R81, R92, K107, K176, R212, R226, R227, K250, K259, and K262”.

Consider trypsin, for which the “proteolytic cleavage sites (digestion, fragments sequenced by LC and MS)” value is “trypsin cleaved D1L3 at the following arginine and lysine residues: R22, R29, R51, R66, R80, R81, R95, K99, R115, K147, K163, K180, R208, R212, R235, R239, K250, and K262”.

The values above are taken from patent publication US20260152732.
